Laboratory results as given in patent US20190240316A1.

Tests used:
[1] = target: RSV strain A2 F protein, pre-fusion-stabilized DS-Cav1 (human respiratory syncytial virus subgroup A strain A2) (UniProt P03420); assay: ELISA on coated antigen
[2] = target: RSV strain A2 F protein, pre-fusion-stabilized SC-TM (human respiratory syncytial virus strain A2) (UniProt P03420); assay: ELISA on coated antigen

| Substance | EC50 [1] [µg/mL] | EC50 [2] [µg/mL] |
| --- | --- | --- |
| mAb D25 (antibody) | 0.089 | – |
| motavizumab (antibody) | 0.037 | 0.028 |
